Assay results reported in the supplement of paper PMC6755084.

B1: minF1; the commonest letter at each place (parent)
chain: GAGACCGCAACTGAAAAGTTGTTATCAGAAATGGATGGGTTGAATTTCTGCACGTAGAAGCAAAAGGC

Variants of: B1
Experiment: fraction ligated after 30 min (ligated reads / total reads); higher = more ligase activity
Details: with F1*subA RNA substrate (template-directed ligation), 42 °C
Method: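 Chip-synthesised pool of minF1 ligase ribozyme variants (single and double substitutions, single to quadruple deletions, bulge and P2 designed variants) was transcribed with T7 and reacted as a pool with excess substrate F1*subA for 30 min at 42 C in 50 mM EPPS pH 8.5, 25 mM MgCl2. Ligated and unligated RNAs were separated by PAGE, barcoded by RT and deep sequenced; fraction ligated = ligated reads / total reads, relative activity = FL / FL of wild-type minF1 (0.76); sequencing FL correlated with PAGE (R2 = 0.98). Sequences are the DNA template of the ribozyme.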

| Variant | fraction ligated |
| --- | --- |
| GAGACCGCAACTGAAAAGTTGTAATAAGAAATGGATGGGTTGAATTTCTGCACGTAGAAGCAAAAGGC | 0.00635 |
| GAGACCGCAACTGAAAAGTTGTAATTAGAAATGGATGGGTTGAATTTCTGCACGTAGAAGCAAAAGGC | 0.0201 |
| GAGACCGCAACTGAAAAGTTGTAATGAGAAATGGATGGGTTGAATTTCTGCACGTAGAAGCAAAAGGC | 0.00512 |
| GAGACCGCAACTGAAAAGTTGTCATCATAAATGGATGGGTTGAATTTCTGCACGTAGAAGCAAAAGGC | 0.326 |
| GAGACCGCAACTGAAAAGTTGTCATCAAAAATGGATGGGTTGAATTTCTGCACGTAGAAGCAAAAGGC | 0.242 |
| GAGACCGCAACTGAAAAGTTGTCATCACAAATGGATGGGTTGAATTTCTGCACGTAGAAGCAAAAGGC | 0.224 |
| GAGACCGCAACTGAAAAGTTGTCATGAGAAATGGATGGGTTGAATTTCTGCACGTAGAAGCAAAAGGC | 0.00264 |
| GAGACCGCAACTGAAAAGTTGTCATTAGAAATGGATGGGTTGAATTTCTGCACGTAGAAGCAAAAGGC | 0.0218 |
| GAGACCGCAACTGAAAAGTTGTCATAAGAAATGGATGGGTTGAATTTCTGCACGTAGAAGCAAAAGGC | 0.006 |
| GAGACCGCAACTGAAAAGTTGTCAGCAGAAATGGATGGGTTGAATTTCTGCACGTAGAAGCAAAAGGC | 0.0076 |
| GAGACCGCAACTGAAAAGTTGTCAACAGAAATGGATGGGTTGAATTTCTGCACGTAGAAGCAAAAGGC | 0.0129 |
| GAGACCGCAACTGAAAAGTTGTCACCAGAAATGGATGGGTTGAATTTCTGCACGTAGAAGCAAAAGGC | 0.0306 |
| GAGACCGCAACTGAAAAGTTGTCATCTGAAATGGATGGGTTGAATTTCTGCACGTAGAAGCAAAAGGC | 0.595 |
| GAGACCGCAACTGAAAAGTTGTCATCCGAAATGGATGGGTTGAATTTCTGCACGTAGAAGCAAAAGGC | 0.133 |
| GAGACCGCAACTGAAAAGTTGTCATCGGAAATGGATGGGTTGAATTTCTGCACGTAGAAGCAAAAGGC | 0.354 |
| GAGACCGCAACTGAAAAGTTGTAATCAGAAATGGATCGGTTGAATTTCTGCACGTAGAAGCAAAAGGC | 0.00499 |
| GAGACCGCAACTGAAAAGTTGTAATCAGAAATGGATTGGTTGAATTTCTGCACGTAGAAGCAAAAGGC | 0.00942 |
| GAGACCGCAACTGAAAAGTTGTAATCAGAAATGGATAGGTTGAATTTCTGCACGTAGAAGCAAAAGGC | 0.00757 |
| GAGACCGCAACTGAAAAGTTGTAATCACAAATGGATGGGTTGAATTTCTGCACGTAGAAGCAAAAGGC | 0.132 |
| GAGACCGCAACTGAAAAGTTGTAATCAAAAATGGATGGGTTGAATTTCTGCACGTAGAAGCAAAAGGC | 0.178 |

| Variant | fraction ligated |
| --- | --- |
| GAGACCGCAACTGAAAAGTTGTAATCATAAATGGATGGGTTGAATTTCTGCACGTAGAAGCAAAAGGC | 0.176 |
| GAGACCGCAACTGAAAAGTTGTCATCAGAAATGGTTGGGTTGAATTTCTGCACGTAGAAGCAAAAGGC | 0.00507 |
| GAGACCGCAACTGAAAAGTTGTCATCAGAAATGGCTGGGTTGAATTTCTGCACGTAGAAGCAAAAGGC | 0.00513 |
| GAGACCGCAACTGAAAAGTTGTCATCAGAAATGGGTGGGTTGAATTTCTGCACGTAGAAGCAAAAGGC | 0.0141 |
| GAGACCGCAACTGAAAAGTTGTCATCAGAAATGGATGGGTTCAATTTCTGCACGTAGAAGCAAAAGGC | 0.00249 |
| GAGACCGCAACTGAAAAGTTGTCATCAGAAATGGATGGGTTTAATTTCTGCACGTAGAAGCAAAAGGC | 0.00449 |
| GAGACCGCAACTGAAAAGTTGTCATCAGAAATGGATGGGTTAAATTTCTGCACGTAGAAGCAAAAGGC | 0.0247 |
| GAGACCGCAACTGAAAAGTTGTCATCAGAAATGGATGGGTTGAGTTTCTGCACGTAGAAGCAAAAGGC | 0.0605 |
| GAGACCGCAACTGAAAAGTTGTCATCAGAAATGGATGGGTTGACTTTCTGCACGTAGAAGCAAAAGGC | 0.0323 |
| GAGACCGCAACTGAAAAGTTGTCATCAGAAATGGATGGGTTGATTTTCTGCACGTAGAAGCAAAAGGC | 0.0534 |
| GAGACCGCAACTGAAAAGTTGTCATCAGAAATGGATGGGTTGAATTTCTGCACGTAGAAGCAAAAGGC | 0.318 |
| GAGACCGCAACTGAAAAGTTGTCATCAGAAATGGATGGGTTGCATTTCTGCACGTAGAAGCAAAAGGC | 0.00429 |
| GAGACCGCAACTGAAAAGTTGTCATCAGAAATGGATGGGTTGGATTTCTGCACGTAGAAGCAAAAGGC | 0.00398 |
| GAGACCGCAACTGAAAAGTTGTCATCAGAAATGGATGGGTTGTATTTCTGCACGTAGAAGCAAAAGGC | 0.00662 |
| GAGACCGCAACTGAAAAGTTGTCATCAGAAATCGATGGGTTGAATTTCTGCACGTAGAAGCAAAAGGC | 0.147 |
| GAGACCGCAACTGAAAAGTTGTCATCAGAAATAGATGGGTTGAATTTCTGCACGTAGAAGCAAAAGGC | 0.304 |
| GAGACCGCAACTGAAAAGTTGTCATCAGAAATTGATGGGTTGAATTTCTGCACGTAGAAGCAAAAGGC | 0.0728 |
| GAGACCGCAACTGAAAAGTTGTAATCAGAAATGGATGGGTTAAATTTCTGCACGTAGAAGCAAAAGGC | 0.0065 |
| GAGACCGCAACTGAAAAGTTGTAATCAGAAATGGATGGGTTTAATTTCTGCACGTAGAAGCAAAAGGC | 0.003 |
